Results taken from US20040176301A1 (CYCLACEL, published 2004).
Square brackets hold non-standard residues; d marks the D form. Ends that are not written are not given here. * marks the point of attachment. Biotin = O=C1N[C@H]2[C@H](CS[C@H]2CCCCC(=O)*)N1; Ahx = NCCCCCC(=O)O

Experiments:
Cyclin D1 = Cyclin D1 (UniProt P24385 1-295, limits assumed); experiment: pull-down, biotinylated peptide on streptavidin-agarose; SDS-PAGE, Western blot
Text: (§1) The biotinylated peptide was pre-immobilised on streptavidin-agarose beads.

CDK2 = CDK2 (UniProt P24941 1-298); experiment: pull-down with biotinylated peptide on streptavidin-agarose beads; SDS-PAGE, Western blot
Text: as §1

CDK4 = target: T1, CDK4 (UniProt P11802 1-303); experiment: as above
T1 construct: also called CDK4-6×His
T1 sequence (P11802 other isoform, or with tags, fused parts or gaps limits assumed): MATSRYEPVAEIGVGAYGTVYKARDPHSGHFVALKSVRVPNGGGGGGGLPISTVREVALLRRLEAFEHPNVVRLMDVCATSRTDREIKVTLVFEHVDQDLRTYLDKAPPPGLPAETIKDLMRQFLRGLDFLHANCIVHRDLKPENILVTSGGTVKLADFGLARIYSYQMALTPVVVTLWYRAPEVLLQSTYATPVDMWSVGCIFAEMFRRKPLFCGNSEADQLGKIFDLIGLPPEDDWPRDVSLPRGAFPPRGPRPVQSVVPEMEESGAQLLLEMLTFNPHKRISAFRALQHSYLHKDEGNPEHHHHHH
Text: as §1

CDK2/Cyclin E complex = CDK2/Cyclin E complex (UniProt P24941 1-298; P24864 1-410); experiment: cell-based or functional assay
CDK4/Cyclin D1 complex = CDK4/Cyclin D1 complex (UniProt P11802 1-303; P24385 1-295); experiment: cell-based or functional assay
CDK4/Cyclin D1 complex, sequence (P11802 other isoform, or with tags, fused parts or gaps, chain 1 of 2): as the sequence (P11802 other isoform, or with tags, fused parts or gaps limits assumed) above
CDK4/Cyclin D1 complex, sequence (P24385 whole entry, chain 2 of 2): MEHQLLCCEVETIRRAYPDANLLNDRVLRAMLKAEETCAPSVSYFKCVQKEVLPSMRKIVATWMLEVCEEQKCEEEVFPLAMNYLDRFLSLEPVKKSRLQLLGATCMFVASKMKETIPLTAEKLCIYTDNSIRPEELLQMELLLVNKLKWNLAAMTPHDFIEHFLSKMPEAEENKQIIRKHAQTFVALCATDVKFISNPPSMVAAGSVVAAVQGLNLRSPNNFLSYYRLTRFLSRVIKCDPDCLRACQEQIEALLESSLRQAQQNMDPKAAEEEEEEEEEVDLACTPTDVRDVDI

CDK1/Cyclin B complex [1] = target: T2, CDK1/Cyclin B complex (UniProt P06493 1-297; P14635 1-433); experiment: cell-based or functional assay
T2 sequence (P06493 other isoform, or with tags, fused parts or gaps, chain 1 of 2): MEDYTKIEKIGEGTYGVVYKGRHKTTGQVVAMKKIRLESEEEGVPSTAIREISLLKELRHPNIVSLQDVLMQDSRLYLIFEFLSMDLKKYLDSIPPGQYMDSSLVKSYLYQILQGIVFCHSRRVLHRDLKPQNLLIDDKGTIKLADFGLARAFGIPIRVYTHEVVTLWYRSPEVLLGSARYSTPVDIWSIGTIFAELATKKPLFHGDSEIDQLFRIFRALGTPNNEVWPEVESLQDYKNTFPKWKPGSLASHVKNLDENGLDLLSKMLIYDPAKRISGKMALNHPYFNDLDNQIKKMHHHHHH
T2 sequence (P14635 other isoform, or with tags, fused parts or gaps, chain 2 of 2): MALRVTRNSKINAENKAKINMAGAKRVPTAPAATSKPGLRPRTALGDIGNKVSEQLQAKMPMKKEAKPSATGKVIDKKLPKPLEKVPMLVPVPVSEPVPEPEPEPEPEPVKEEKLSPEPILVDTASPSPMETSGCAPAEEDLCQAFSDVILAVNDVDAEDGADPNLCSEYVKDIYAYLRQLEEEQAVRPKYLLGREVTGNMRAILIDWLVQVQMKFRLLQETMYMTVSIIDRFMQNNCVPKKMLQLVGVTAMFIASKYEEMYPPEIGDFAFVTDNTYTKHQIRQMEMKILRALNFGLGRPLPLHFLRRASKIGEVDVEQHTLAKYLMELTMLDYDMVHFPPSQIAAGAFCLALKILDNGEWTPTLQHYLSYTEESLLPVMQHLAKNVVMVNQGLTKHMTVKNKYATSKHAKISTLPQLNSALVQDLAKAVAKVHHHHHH

CDK1/Cyclin B complex [2] = target: T2, CDK1/Cyclin B complex; experiment: pull-down with immobilised peptide
cyclin B = cyclin B (UniProt P14635 1-433); experiment: pull-down with immobilised peptide
cyclin B, sequence (P14635 whole entry): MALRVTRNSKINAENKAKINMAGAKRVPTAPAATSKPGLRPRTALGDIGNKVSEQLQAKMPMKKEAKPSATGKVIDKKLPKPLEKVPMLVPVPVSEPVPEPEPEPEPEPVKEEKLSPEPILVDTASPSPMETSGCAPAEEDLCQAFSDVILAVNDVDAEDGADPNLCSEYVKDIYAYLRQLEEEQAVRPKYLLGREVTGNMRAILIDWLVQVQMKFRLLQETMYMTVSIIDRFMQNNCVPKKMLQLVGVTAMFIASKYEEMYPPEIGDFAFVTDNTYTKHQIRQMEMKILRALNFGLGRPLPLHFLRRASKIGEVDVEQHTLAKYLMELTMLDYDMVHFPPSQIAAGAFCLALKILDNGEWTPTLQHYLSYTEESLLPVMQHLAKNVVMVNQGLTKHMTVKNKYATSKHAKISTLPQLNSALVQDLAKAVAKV
Throughout, for % Inhibition, cyclin D1/CDK4 kinase: test concentration or dose not given here.
Throughout, for % Inhibition, cyclin E/CDK2 kinase: test concentration or dose not given here.

Cyclin D1, sequence (P24385 whole entry): as the sequence (P24385 whole entry, chain 2 of 2) above

binding result (Cyclin D1) | binding result (CDK2) | binding result (CDK4) | % Inhibition, cyclin E/CDK2 kinase (CDK2/Cyclin E complex) | IC50, cyclin E/CDK2 kinase, GST-pRb (CDK2/Cyclin E complex) | % Inhibition, cyclin D1/CDK4 kinase (CDK4/Cyclin D1 complex) | IC50, cyclin D1/CDK4 kinase, GST-pRb (CDK4/Cyclin D1 complex) | IC50, CDK1-Cyclin B phosphorylation of GST-Rb (CDK1/Cyclin B complex [1]) | IC50, CDK1-Cyclin B phosphorylation of Histone 1 (CDK1/Cyclin B complex [1]) | binding result (CDK1/Cyclin B complex [2]) | binding result (cyclin B) | Binder
binds | no binding | no binding |  |  |  |  |  |  |  |  | Biotin-[Ahx]DFYHSKRRLIF-NH2 (SMILES CC[C@H](C)[C@H](NC(=O)[C@H](CC(C)C)NC(=O)[C@H](CCCNC(=N)N)NC(=O)[C@H](CCCNC(=N)N)NC(=O)[C@H](CCCCN)NC(=O)[C@H](CO)NC(=O)[C@H](Cc1c[nH]cn1)NC(=O)[C@H](Cc1ccc(O)cc1)NC(=O)[C@H](Cc1ccccc1)NC(=O)[C@H](CC(=O)O)NC(=O)CCCCCNC(=O)CCCC[C@@H]1SC[C@@H]2NC(=O)N[C@@H]21)C(=O)N[C@@H](Cc1ccccc1)C(N)=O, immobilised on streptavidin) [biotinyl-Ahx-Asp-Phe-Tyr-His-Ser-Lys-Arg-Arg-Leu-Ile-Phe-NH]
 |  |  | 80% | 4.5 µM | 70% | 20 µM | 200 µM | > 200 µM | no binding | no binding | DFYHSKRRLIFS-NH2 [p21 (149-160) DFYHSKRRLIFS-NH2]
